Source: paper PMC4540782, “Latent and active aurone synthase from petals of C. grandiflora: a polyphenol oxidase with unique characteristics” (Planta, 2015)

Experiments:
[1] = target: T1, latent recombinant cgAUS1 (pro-cgAUS1) (Coreopsis grandiflora, UniProt A0A075DN54); assay: spectrophotometric pH profile; format: biochemical; settings: 25 µM butein, 125 mM sodium citrate, pH 3.5 to 7.4; no allosteric activation
T1 construct: heterologously expressed latent pro-enzyme with C-terminal shielding domain
T1 sequence (A0A075DN54 86-602): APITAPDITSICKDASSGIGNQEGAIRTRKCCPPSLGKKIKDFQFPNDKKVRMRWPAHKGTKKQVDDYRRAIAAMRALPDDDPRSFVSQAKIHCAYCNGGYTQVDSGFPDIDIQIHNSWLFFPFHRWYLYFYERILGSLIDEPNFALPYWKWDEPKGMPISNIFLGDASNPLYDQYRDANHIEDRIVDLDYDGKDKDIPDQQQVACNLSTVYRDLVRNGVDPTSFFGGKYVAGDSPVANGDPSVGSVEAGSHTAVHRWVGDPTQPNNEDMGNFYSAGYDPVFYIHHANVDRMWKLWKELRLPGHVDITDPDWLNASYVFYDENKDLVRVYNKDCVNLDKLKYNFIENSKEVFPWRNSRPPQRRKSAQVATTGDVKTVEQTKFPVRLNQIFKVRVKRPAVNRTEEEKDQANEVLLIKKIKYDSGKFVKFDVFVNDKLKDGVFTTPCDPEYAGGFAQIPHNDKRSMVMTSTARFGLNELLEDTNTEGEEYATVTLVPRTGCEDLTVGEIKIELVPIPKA

CC(C)(C)c1ccc(O)c(O)c1 = system: T2, CC(C)(C)c1ccc(O)c(O)c1; assay: purified protein; format: biochemical, Coreopsis grandiflora; settings: pH 5.5, suicide substrate
T2 construct: main core API-IENSKE plus disulfide-linked C-terminal peptide D438-G452; partly phosphorylated or sulfated at Tyr230

Cc1ccc(O)c(O)c1 = system: T3, Cc1ccc(O)c(O)c1; assay: purified protein; format: biochemical, Coreopsis grandiflora; settings: pH 5.5, suicide substrate
T3 construct: main core API-IENSKE plus disulfide-linked C-terminal peptide D438-G452; partly phosphorylated or sulfated at Tyr230

[2] = system: T4, O=C(/C=C/c1ccc(O)c(O)c1)c1ccc(O)cc1O; assay: purified protein; format: biochemical, Coreopsis grandiflora; settings: pH 5.5, diphenolase, butein to sulfuretin
T4 construct: main core API-IENSKE plus disulfide-linked C-terminal peptide D438-G452; partly phosphorylated or sulfated at Tyr230

Oc1ccccc1O = system: T5, Oc1ccccc1O; assay: purified protein; format: biochemical, Coreopsis grandiflora; settings: pH 5.5
T5 construct: main core API-IENSKE plus disulfide-linked C-terminal peptide D438-G452; partly phosphorylated or sulfated at Tyr230

Row | Molecule | spectrophotometric pH profile [1] | Km (CC(C)(C)c1ccc(O)c(O)c1) | Vmax (CC(C)(C)c1ccc(O)c(O)c1) | kcat (CC(C)(C)c1ccc(O)c(O)c1) | Km (Cc1ccc(O)c(O)c1) | Vmax (Cc1ccc(O)c(O)c1) | kcat (Cc1ccc(O)c(O)c1) | kcat/Km (Cc1ccc(O)c(O)c1) | Km [2] | Vmax [2] | kcat [2] | kcat/Km [2] | Km (Oc1ccccc1O) | kcat (Oc1ccccc1O) | kcat/Km (Oc1ccccc1O)
1 | O=C(/C=C/c1ccc(O)c(O)c1)c1ccc(O)cc1O [Butein] | pH optimum of recombinant pro-cgAUS1 (filled triangle, dashed lines) and active cgAUS1 | – | – | – | – | – | – | – | – | – | – | – | – | – | –
2 | active cgAUS1 (aurone synthase), sample 1 (Coreopsis grandiflora; DEL436-522) | – | 504 ± 20 µM | 2260 ± 23 µmol/min/mg | 1560 ± 16 s⁻¹ | 3110 ± 120 µM | 2300 ± 39 µmol/min/mg | 1590 ± 27 s⁻¹ | 512000 ± 22000 M⁻¹ s⁻¹ | 52 ± 3 µM | 489 µmol/min/mg | 464 ± 16 s⁻¹ | 8.93e+06 ± 649000 M⁻¹ s⁻¹ | 4040 ± 690 µM | 869 ± 41 s⁻¹ | 215000 ± 38000 M⁻¹ s⁻¹
